The target of experiment [1] is GCN4 leucine zipper fused to the β-lactamase fragments N-BLa and C-BLa. Kind of experiment: split reporter (BiFC, NanoBiT); split β-lactamase; soluble N-BLa and C-BLa fusions co-expressed in the E. coli periplasm; read-out: ampicillin LD50 in liquid media by optical density.
For another experiment, the target named is GpA0 G83I. As to the kind of experiment: BLaTM 1.2 (split β-lactamase complementation, ampicillin resistance). The note with it: E. coli JM83, 133 μM arabinose, n = 3, read off a plot.
For experiment [2], the target named is glycophorin A transmembrane domain G83I mutant, frame GpA+1, in BLaTM hybrid proteins. As to the kind of experiment: split reporter (BiFC, NanoBiT); BLaTM 1.2 (ompA signal) in E. coli JM83; 133 μM arabinose plus 0.3 mM IPTG; ampicillin LD50 given relative to wild-type GpA+1 (=100%); library pairs first selected on ampicillin, then measured one by one; labels are N-BLa/C-BLa.

Experiment [3] has the same target. As to the kind of experiment: BLaTM 1.1 (split β-lactamase complementation, ampicillin resistance). The note with it: E. coli BL21; n = 4 separate transformations; parent: est. 160 µg/ml; read off a plot.
The target is the same in experiment [4]. Kind of experiment: BLaTM 1.2 (split β-lactamase complementation, ampicillin resistance). To be noted: E. coli JM83, 133 μM arabinose, n = 3, read off a plot.
The target in experiment [5] is quiescin sulfhydryl oxidase 2 transmembrane domain S8A mutant, in BLaTM hybrid proteins. Kind of experiment: BLaTM 1.1 (split β-lactamase complementation, ampicillin resistance). The note with it: E. coli BL21; n = 4 separate transformations; parent: est. 80 µg/ml; read off a plot.

Drawing on PMC5339904, this text covers fold rise of the ampicillin LD50 on co-expression of both fragments, other: LD50 c(Amp) and LD50 in % of GpA+1 wt (% (GpA+1 wt = 100%)) for five substances.

GCN4 leucine zipper fused to the β-lactamase fragments N-BLa and C-BLa, sequence (P03069 whole entry, the tested form may be a part): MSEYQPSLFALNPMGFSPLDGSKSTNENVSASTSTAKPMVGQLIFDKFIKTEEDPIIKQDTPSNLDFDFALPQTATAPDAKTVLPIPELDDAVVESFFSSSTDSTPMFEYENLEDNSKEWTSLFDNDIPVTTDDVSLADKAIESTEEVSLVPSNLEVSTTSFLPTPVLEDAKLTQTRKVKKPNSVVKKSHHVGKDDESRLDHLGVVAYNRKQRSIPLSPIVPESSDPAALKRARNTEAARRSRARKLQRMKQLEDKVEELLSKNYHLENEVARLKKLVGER

On to “GCN4 leucine zipper fused to the β-lactamase fragments N-BLa and C-BLa”, for which the fold rise of the ampicillin LD50 on co-expression of both fragments in experiment [1] is 40 fold.
With GpA0 wt G83I, the other: LD50 c(Amp) with GpA0 G83I (0.1 mM IPTG, parent: est. 230 µg/ml) is 150 µg/mL; with GpA0 G83I (0.2 mM IPTG, parent: est. 99 µg/ml) it was 73 µg/mL; with GpA0 G83I (0.3 mM IPTG, parent: est. 80 µg/ml) it was 52 µg/mL; in the experiment with GpA0 G83I (0.4 mM IPTG, parent: est. 61 µg/ml) it was 38 µg/mL; with GpA0 G83I (0.7 mM IPTG, parent: est. 30 µg/ml) it was 24 µg/mL.
Consider “glycophorin A transmembrane domain G83I mutant, frame GpA+1, in BLaTM hybrid proteins (domain or fragment)”, for which, in experiment [2], the LD50 in % of GpA+1 wt (% (GpA+1 wt = 100%)) worked out at 29.
Regarding “glycophorin A transmembrane domain, wild type, frame GpA+1, in BLaTM hybrid proteins G83I”, the other: LD50 c(Amp) in experiment [3] turned out to be 16 µg/mL; in experiment [4] (0.1 mM IPTG), 120 µg/mL; in experiment [4] (0.2 mM IPTG), 70 µg/mL; in experiment [4] (0.3 mM IPTG, parent: est. 270 µg/ml), 65 µg/mL; in experiment [4] (0.4 mM IPTG, parent: est. 140 µg/ml) it was 43 µg/mL; in experiment [4] (0.5 mM IPTG, parent: est. 100 µg/ml), 32 µg/mL. For the same substance, in experiment [4] (0.7 mM IPTG, parent: est. 62 µg/ml), the other: LD50 c(Amp) is 27 µg/mL.
Turning to “quiescin sulfhydryl oxidase 2 transmembrane domain, wild type, in BLaTM hybrid proteins S8A”, the other: LD50 c(Amp) in experiment [5] was 38 µg/mL.
